Test results from article PMC7958859, “Molecular and Pharmacological Characterization of the Interaction between Human Geranylgeranyltransferase Type I and Ras-Related Protein Rap1B” (International Journal of Molecular Sciences, 2021).

Molecular target: human GGTase-I (LgBiT-GGTase-I-β-subunit with co-transfected untagged FTase α-subunit) (human, UniProt P53609-1 2-377; P49354-1 1-379)
Test: split reporter (BiFC, NanoBiT); living HEK293 cells stably expressing the human A2BAR, transient co-transfection (50 ng DNA/well of each LgBiT and SmBiT plasmid, 100 ng/well untagged FTase α, ΔCQLL 50–200 ng/well); NanoGlo live-cell substrate 24 h after transfection, luminescence at 25 °C every 30 s, maxima plotted as RLU; also after treatment with vehicle (DMSO), adenosine, NECA, BAY60-6583, CGS-21680, forskolin, …
Details: partners not purified

B1: SmBiT-Rap1B ΔCQLL (domain or fragment)
chain: REYKLVVLGSGGVGKSALTVQFVQGIFVEKYDPTIEDSYRKQVEVDAQQCMLEILDTAGTEQFTAMRDLYMKNGQGFALVYSITAQSTFNDLQDLREQILRVKDTDDVPMILVGNKCDLEDERVVGKEQGQNLARQWNNCAFLESSAKSKINVNEIFYDLVRQINRKTPVPGKARKKSS
notes: human Rap1B lacking the C-terminal CAAX motif CQLL (from C181 to the end); the forward primer begins at codon 2, the reverse primer ends with Lys-Lys-Ser-Ser and a stop codon; Expression about 5-fold lower than SmBiT-Rap1B WT by Western blot; Glycine/serine linker and Ala-Ile-Ala between SmBiT and Rap1B; also called complete CAAX motif deletion mutant; source: HEK293 stably expressing the human …
fold lower luminescence than with Rap1B WT (50 ng DNA/well each): ~20 fold
fold lower luminescence than with Rap1B WT (ΔCQLL 200 ng DNA/well, WT 50 ng DNA/well): ~10 fold
